According to IntAct's records for PubMed 24268649:

Each substance was assayed against ncor2_human NCOR2 (UniProt Q9Y618).
Sequence of ncor2_human NCOR2 (Q9Y618 whole entry): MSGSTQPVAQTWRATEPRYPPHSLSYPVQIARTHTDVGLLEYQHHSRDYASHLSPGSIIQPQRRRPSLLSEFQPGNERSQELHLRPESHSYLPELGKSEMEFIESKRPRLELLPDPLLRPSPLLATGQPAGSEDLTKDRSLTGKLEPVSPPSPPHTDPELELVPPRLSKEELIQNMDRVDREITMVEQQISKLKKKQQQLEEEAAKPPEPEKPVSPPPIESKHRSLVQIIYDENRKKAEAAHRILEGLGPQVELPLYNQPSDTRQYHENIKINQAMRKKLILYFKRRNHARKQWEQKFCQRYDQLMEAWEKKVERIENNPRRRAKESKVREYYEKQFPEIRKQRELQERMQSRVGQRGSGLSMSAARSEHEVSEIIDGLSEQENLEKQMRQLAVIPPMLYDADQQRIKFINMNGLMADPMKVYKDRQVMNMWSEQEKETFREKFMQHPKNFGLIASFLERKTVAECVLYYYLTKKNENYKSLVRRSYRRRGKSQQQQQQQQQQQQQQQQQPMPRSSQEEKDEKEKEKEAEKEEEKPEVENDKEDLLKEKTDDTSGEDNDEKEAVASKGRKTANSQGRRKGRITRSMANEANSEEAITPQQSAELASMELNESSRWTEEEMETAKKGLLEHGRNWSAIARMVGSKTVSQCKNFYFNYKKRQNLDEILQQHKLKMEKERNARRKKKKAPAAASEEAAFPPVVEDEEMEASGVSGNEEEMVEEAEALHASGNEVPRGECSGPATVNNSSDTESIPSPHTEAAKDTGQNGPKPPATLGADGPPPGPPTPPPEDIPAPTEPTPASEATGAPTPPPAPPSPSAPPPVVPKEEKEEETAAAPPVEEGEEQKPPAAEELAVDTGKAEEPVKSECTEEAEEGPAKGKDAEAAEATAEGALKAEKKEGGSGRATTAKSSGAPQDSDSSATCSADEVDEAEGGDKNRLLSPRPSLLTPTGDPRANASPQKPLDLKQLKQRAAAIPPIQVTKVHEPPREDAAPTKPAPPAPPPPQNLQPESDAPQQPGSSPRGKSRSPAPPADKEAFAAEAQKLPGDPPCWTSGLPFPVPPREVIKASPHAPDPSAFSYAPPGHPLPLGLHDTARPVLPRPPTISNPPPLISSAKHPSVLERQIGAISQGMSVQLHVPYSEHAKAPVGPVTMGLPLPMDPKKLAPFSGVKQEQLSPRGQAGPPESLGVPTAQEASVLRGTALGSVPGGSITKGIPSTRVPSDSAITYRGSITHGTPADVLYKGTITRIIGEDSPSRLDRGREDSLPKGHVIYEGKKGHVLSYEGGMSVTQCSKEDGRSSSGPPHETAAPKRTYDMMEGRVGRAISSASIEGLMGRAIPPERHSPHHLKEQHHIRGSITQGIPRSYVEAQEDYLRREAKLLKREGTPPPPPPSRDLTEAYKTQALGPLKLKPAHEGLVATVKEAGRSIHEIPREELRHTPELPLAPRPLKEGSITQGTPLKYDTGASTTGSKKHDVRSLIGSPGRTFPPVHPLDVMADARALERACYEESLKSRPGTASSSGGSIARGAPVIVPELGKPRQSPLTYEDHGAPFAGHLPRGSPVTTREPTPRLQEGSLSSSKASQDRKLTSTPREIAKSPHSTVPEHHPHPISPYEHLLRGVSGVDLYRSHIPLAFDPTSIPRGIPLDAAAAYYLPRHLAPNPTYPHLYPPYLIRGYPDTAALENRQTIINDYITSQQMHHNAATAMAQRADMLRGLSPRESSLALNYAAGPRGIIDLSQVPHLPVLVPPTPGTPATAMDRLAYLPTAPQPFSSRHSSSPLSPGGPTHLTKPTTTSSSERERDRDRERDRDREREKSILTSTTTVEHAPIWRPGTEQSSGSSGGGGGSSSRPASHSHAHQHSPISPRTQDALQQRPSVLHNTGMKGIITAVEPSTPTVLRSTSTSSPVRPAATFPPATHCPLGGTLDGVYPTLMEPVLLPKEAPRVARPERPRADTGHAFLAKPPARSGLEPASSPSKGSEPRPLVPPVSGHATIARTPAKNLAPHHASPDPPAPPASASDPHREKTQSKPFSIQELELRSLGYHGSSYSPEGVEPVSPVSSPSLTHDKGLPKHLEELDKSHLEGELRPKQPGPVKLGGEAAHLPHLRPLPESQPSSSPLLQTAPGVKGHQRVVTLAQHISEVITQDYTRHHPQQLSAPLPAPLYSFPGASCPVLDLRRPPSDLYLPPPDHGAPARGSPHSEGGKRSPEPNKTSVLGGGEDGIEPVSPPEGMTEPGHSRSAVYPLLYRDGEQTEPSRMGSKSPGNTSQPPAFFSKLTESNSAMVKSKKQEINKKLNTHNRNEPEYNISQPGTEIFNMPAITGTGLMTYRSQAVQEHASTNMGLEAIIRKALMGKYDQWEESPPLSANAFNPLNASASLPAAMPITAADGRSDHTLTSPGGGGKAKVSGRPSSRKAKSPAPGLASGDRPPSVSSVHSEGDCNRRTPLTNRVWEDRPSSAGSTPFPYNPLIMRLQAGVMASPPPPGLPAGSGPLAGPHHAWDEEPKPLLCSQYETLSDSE

Row | Substance | effect of a mutation on the interaction
1 | Msx2-interacting protein (Homo sapiens), Q96T58 R3552K | decreasing interaction strength
2 | Msx2-interacting protein (Homo sapiens), Q96T58 K3516A | disrupting interaction strength
3 | Msx2-interacting protein (Homo sapiens), Q96T58 Y3602A | decreasing interaction strength
4 | Msx2-interacting protein (Homo sapiens), Q96T58 R3548A | decreasing interaction strength
5 | Msx2-interacting protein (Homo sapiens), Q96T58 R3554A | decreasing interaction strength
6 | Msx2-interacting protein (Homo sapiens), Q96T58 K3606A | disrupting interaction strength
7 | Msx2-interacting protein (Homo sapiens), Q96T58 M3553A | decreasing interaction strength
8 | Msx2-interacting protein (Homo sapiens), Q96T58 L3515A | decreasing interaction strength
9 | Msx2-interacting protein (Homo sapiens), Q96T58 R3552A | disrupting interaction strength
10 | Msx2-interacting protein (Homo sapiens), Q96T58 Q3551A | decreasing interaction strength
